Variants at the floor of the assay were thinned out.
B1: TPR 5TU (parent)
chain: GGAUCUUCUCGAUCUAACAAAAAAGACAAAUCUGCCACAAAGCUUGAGAGCAUCUUCGGAUGCAGAGGCGGCAGCCUUCGGUGGCGCGAUAGCGCCAACGUUCUCAACUAUGACACGCAAAACGCGUGCUCCGUUGAAUGGAGUUUAUCAUG

Variants of: B1
Experiment: polymerase ribozyme fitness, log enrichment relative to wild type (log ratio); higher = more active; in vitro selection for triplet polymerase activity
In short: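 Fitness is a logarithmic measure of how a genotype enriched relative to the wild type, with replicate averages weighted by inverse variance. The logarithm uses base 2, and enrichment came from Illumina sequencing of input and output libraries. Those libraries were PCR-built, transcribed mutants of each subunit of a heterodimeric triplet polymerase ribozyme, passed through one triplicate in vitro selection round that included frozen incubation at −7 °C, gel excision of extended constructs and streptavidin-bead capture. Genotypes were kept only if they had ≥10 input reads and ≥1 read per output.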

Variant | polymerase ribozyme fitness (log ratio)
A40U U44A C57U C76G A91U U134C G136C | ≤ -4.2
A41C A66G G70A A91U C93U C96G | ≤ -4.2
A39U U104G | -3.71
A40G C75U C93U A97U | ≤ -4.2
A40U A52G G65A G70A G128U | ≤ -4.2
A40U G58A | 0.274
A39G U53C U77G A113C C116A | ≤ -4.2
C38G C96G | -0.167
A39U G70C G80U C87G C93U U134C | ≤ -4.2
A40G A98G A113C | ≤ -4.2
A40C C57G C85A U102A | ≤ -4.2
C38U A73G G86A A91U A97G A115C | ≤ -4.2
A41C G67A | -3.93
A41C G81C U82C A97C | -0.593
A40C A60G G62U G68A A97U G141A A142G | ≤ -4.2
A40G U61C G92U U145G | ≤ -4.2
A40G G84U A89U U104G | ≤ -4.2
A39U G59C U146G A150G | -3.66
A39C G86U A91C A150U | ≤ -4.2
C38U G81U C108A U139G | ≤ -4.2
A39G G58A | -1.68

Variant | polymerase ribozyme fitness (log ratio)
A39C G83U | -2.83
A39G U55A A91C C108A U144C | ≤ -4.2
A39U A49U G59C C132U U148A | ≤ -4.2
A41C A52C | -1.97
A39U A89G | -2.99
C38U C95A A120G G141C | -1.16
A40G G59A G68U | ≤ -4.2
A40G G58A | -0.952
A40G C85G | -3.63
A39G A60C G84A C87G C95G C118G U145G | ≤ -4.2
A39U C96U | -2.1
C38U C76U U77G G92A C118A C129U | ≤ -4.2
A40G G71U G86U | ≤ -4.2
A39U C93U U144C | -3.54
A41C G42A G59C G68A C95U | ≤ -4.2
A39C U61A C87U G94U U101C A147U | ≤ -4.2
C38U A89U C114U | -2.12
C38U C57U C93A A142U | -3.5
A39G C69G C93U C103G C108U C116U A137C | ≤ -4.2
A39U C54U A60U C75G C79A U90A | ≤ -4.2
C38U U56A A120G G126U U145C U146G | -3.34

Variant | polymerase ribozyme fitness (log ratio)
A41C G50A C96U | -1.93
C38U G84U C123U | -0.916
A39G C54G A106U | ≤ -4.2
C38U U90C U109C C116A C125G U146G | ≤ -4.2
C38U C87U C103U | -0.308
A39U G50A G67U G71C G84A | ≤ -4.2
C38G G143C C149U | ≤ -4.2
A40C G42A A52U G81C G84U A97C C118U | ≤ -4.2
A40C A52U C57U G92C C95U C105U A106C U109C A138G | ≤ -4.2
A40C G88A A91G U144G | ≤ -4.2
A41C A150U | 0.683
A40C C69U A91U C96A A119G U134A A142U | ≤ -4.2
A40U G92U A119G | -0.619
A40U G126C | -0.388
A39U U77A U78G C85G G86A | ≤ -4.2
A40C C76A | -2.59
A40U G86U | -1.77
A39C G50A G86A G94U G133A | ≤ -4.2
A41C G46A U82A C116G | -3.58
A41C G84A U109G | -3.33
A41C G58C G59C A113C U145A | -4.1

Variant | polymerase ribozyme fitness (log ratio)
A40G C51U U56A U78A G83C | ≤ -4.2
A40C C54U A64U U78A G88C A150G | ≤ -4.2
A39G G84A G136U | -4.02
A41C C63G G86A A115C | -2.61
A40G G84A C85G A106G | ≤ -4.2
A40G C54G G74A G83C C105G | ≤ -4.2
C38G C87U C125U G141A | -3.12
A39G U145A | -1.85
A40U G50C A91G U104A | ≤ -4.2
A40G G48A C125A | ≤ -4.2
A40C G42C G80U | ≤ -4.2
A40G G84C U109G A119U U139A G140U G152U | ≤ -4.2
A40U A91G C116U A121U | -2.66
A39C A66C G86U | ≤ -4.2
A39G | -1.53
A39U | -1.9
A39C | -1.87
A41C C54U G141C | -1.43
C38U A97G | -0.0867
A40C G68U C99A U130G | ≤ -4.2

From the RNAGym collection of RNA variant scans (doi:10.1073/pnas.2313332121)
